Test results as given in US20200024358A1 (published 2020).
Substitutions are numbered along the chain they refer to.

T1: Human BCMA labelled with a fluorescent dye (human, UniProt Q02223 1-54, limits assumed, labelled with a fluorescent dye (dye and site not stated))
T1 construct: also called fluorescently labeled BCMA
T1 sequence (looked up): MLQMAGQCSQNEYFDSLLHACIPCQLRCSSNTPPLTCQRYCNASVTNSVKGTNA

T2: recombinant Human BCMA Fc Chimera (produced in-house via transient expression in HEK293-6E cells) (human, UniProt Q02223 1-54)
T2 construct: not shown: Fc part of the chimera
T2 sequence (looked up): T1 sequence (looked up)

B1: CDR1-007 (other)
heavy: QIQLVQSGPELKKPGETVKISCKASGYTFTDYSINWVKRAPGKGLKWMGWINTETREPAYAYDFRGRFAFSLETSASTAYLQINNLKYEDTATYFCALDYSYAMDYWGQGTSVTVSSASTKGPSVFPLAPSSKSTSGGTAALGCLVKDYFPEPVTVSWNSGALTSGVHTFPAVLQSSGLYSLSSVVTVPSSSLGTQTYICNVNHKPSNTKVDKRVEPKSCGGGGSEIVMTQSPSTLSASVGDRVIITCQASEDIYSLLAWYQQKPGKAPKLLIYDASDLASGVPSRFSGSGSGAEFTLTISSLQPDDSATYYCQGNYGSSSSSSYGAVFGQGTKLTVLGGGGGSGGGGSGGGGSGGGGSEVQLVESGGGSVQPGGSLRLSCTVSGIDLSSYTMGWVRQAPGKGLEWVGIISSGGRTYYASWAKGRFTISRDTSKNTVYLQMNSLRAEDTATYYCARGRYTGYPYYFALWGQGTTVTVSS
light: DIVLTQSPASLAMSLGKRATISCRASESVSVIGAHLIHWYQQKPGQPPKLLIYLASNLETGVPARFSGSGSGTDFTLTIDPVEEDDVAIYSCLQSRIFPRTFGGGTKLEIKRTVAAPSVFIFPPSDEQLKSGTASVVCLLNNFYPREAKVQWKVDNALQSGNSQESVTEQDSKDSTYSLSSTLTLSKADYEKHKVYACEVTHQGLSSPVTKSFNRGECGGGGSAVVTQEPSLTVSPGGTVTLTCGSSTGAVTTSNYANWVQQKPGKSPRGLIGGTNKRAPGVPARFSGSLLGGKAALTISGAQPEDEADYYCALWYSNHWVFGGGTKLTVLGGGGGSGGGGSGGGGSGGGGSEVQLVESGGGSVQPGGSLRLSCAASGFTFSTYAMNWVRQAPGKGLEWVGRIRSKANNYATYYADSVKGRFTISRDDSKNTLYLQMNSLRAEDTATYYCVRHGNFGDSYVSWFAYWGQGTTVTVSS
notes: also called CDR-007; trispecific CDR1-007
B2: CDR1-011 (other)
heavy: B1 heavy with Y255A
light: B1 light
notes: also called CDR1-0011
B3: CDR1-017 (other)
heavy: B1 heavy with R458A
light: B1 light
notes: also called trispecific CDR1-017
B4: CDR1-049 (other)
heavy: EVQLVESGGGSVQPGGSLRLSCTVSGIDLSSYTMGWVRQAPGKGLEWVGIISSGGRTYYASWAKGRFTISRDTSKNTVYLQMNSLRAEDTATYYCARGRYTGYPYYFALWGQGTTVTVSSASTKGPSVFPLAPSSKSTSGGTAALGCLVKDYFPEPVTVSWNSGALTSGVHTFPAVLQSSGLYSLSSVVTVPSSSLGTQTYICNVNHKPSNTKVDKRVEPKSCGGGGSAVVTQEPSLTVSPGGTVTLTCGSSTGAVTTSNYANWVQQKPGKSPRGLIGGTNKRAPGVPARFSGSLLGGKAALTISGAQPEDEADYYCALWYSNHWVFGGGTKLTVLGGGGGSGGGGSGGGGSGGGGSEVQLVESGGGSVQPGGSLRLSCAASGFTFSTYAMNWVRQAPGKGLEWVGRIRSKANNYATYYADSVKGRFTISRDDSKNTLYLQMNSLRAEDTATYYCVRHGNFGDSYVSWFAYWGQGTTVTVSS
light: EIVMTQSPSTLSASVGDRVIITCQASEDIYSLLAWYQQKPGKAPKLLIYDASDLASGVPSRFSGSGSGAEFTLTISSLQPDDSATYYCQGNYGSSSSSSYGAVFGQGTKLTVLGTVAAPSVFIFPPSDEQLKSGTASVVCLLNNFYPREAKVQWKVDNALQSGNSQESVTEQDSKDSTYSLSSTLTLSKADYEKHKVYACEVTHQGLSSPVTKSFNRGECGGGGSDIVLTQSPASLAMSLGKRATISCRASESVSVIGAHLIHWYQQKPGQPPKLLIYLASNLETGVPARFSGSGSGTDFTLTIDPVEEDDVAIYSCLQSRIFPRTFGGGTKLEIKGGGGSGGGGSGGGGSGGGGSQIQLVQSGPELKKPGETVKISCKASGYTFTDYSINWVKRAPGKGLKWMGWINTETREPAYAYDFRGRFAFSLETSASTAYLQINNLKYEDTATYFCALDYSYAMDYWGQGTSVTVSS
notes: Trispecific Fab-scFv: anti-PD-L1 Fab, anti-CD3 scFv on the Fd, anti-BCMA scFv on the light chain
B5: CDR1-055 (other)
heavy: QIQLVQSGPELKKPGETVKISCKASGYTFTDYSINWVKRAPGKGLKWMGWINTETREPAYAYDFRGRFAFSLETSASTAYLQINNLKYEDTATYFCALDYSYAMDYWGQGTSVTVSSASTKGPSVFPLAPSSKSTSGGTAALGCLVKDYFPEPVTVSWNSGALTSGVHTFPAVLQSSGLYSLSSVVTVPSSSLGTQTYICNVNHKPSNTKVDKRVEPKSCGGGGSQVQLVESGGGLVQPGGSLRLSCAASGKMSSRRCMAWFRQAPGKGLERVAKLLTTSGSTYLADSVKGRFTISRDNSKNTVYLQMNSLRAEDTAVYYCAADSFEDPTCTLVTSSGAFQYWGQGTLVTVSS
light: B1 light
notes: Trispecific: anti-BCMA Fab, anti-PD-L1 sdAb on the Fd, anti-CD3 scFv on the light chain
B6: CDR1-056 (other)
chain: AVVTQEPSLTVSPGGTVTLTCGSSTGAVTTSNYANWVQQKPGKSPRGLIGGTNKRAPGVPARFSGSLLGGKAALTISGAQPEDEADYYCALWYSNHWVFGGGTKLTVLGGGGGSGGGGSGGGGSGGGGSEVQLVESGGGSVQPGGSLRLSCAASGFTFSTYAMNWVRQAPGKGLEWVGRIRSKANNYATYYADSVKGRFTISRDDSKNTLYLQMNSLRAEDTATYYCVRHGNFGDSYVSWFAYWGQGTTVTVSSGGGGSQVQLVESGGGLVQPGGSLRLSCAASGKMSSRRCMAWFRQAPGKGLERVAKLLTTSGSTYLADSVKGRFTISRDNSKNTVYLQMNSLRAEDTAVYYCAADSFEDPTCTLVTSSGAFQYWGQGTLVTVSSGGGGSQVQLVESGGGLVQPGGSLRLSCAASGFTLDYYAIGWFRQAPGKEREGVSCISRSDGSTYYADSVKGRFTISRDNAKNTVYLQMNSLKPEDTAVYYCAAAGADCSGYLRDYEFWGQGTLVTVSS
notes: Trispecific tandem scFv-sdAb-sdAb on one chain; also called CDR-056
B7: CDR1-005 (bispecific antibody)
heavy: QIQLVQSGPELKKPGETVKISCKASGYTFTDYSINWVKRAPGKGLKWMGWINTETREPAYAYDFRGRFAFSLETSASTAYLQINNLKYEDTATYFCALDYSYAMDYWGQGTSVTVSSASTKGPSVFPLAPSSKSTSGGTAALGCLVKDYFPEPVTVSWNSGALTSGVHTFPAVLQSSGLYSLSSVVTVPSSSLGTQTYICNVNHKPSNTKVDKRVEPKSC
light: B1 light
B8: CDR1-008 (bispecific antibody)
scFv: DIVLTQSPASLAMSLGKRATISCRASESVSVIGAHLIHWYQQKPGQPPKLLIYLASNLETGVPARFSGSGSGTDFTLTIDPVEEDDVAIYSCLQSRIFPRTFGGGTKLEIKGGGGSGGGGSGGGGSGGGGSQIQLVQSGPELKKPGETVKISCKASGYTFTDYSINWVKRAPGKGLKWMGWINTETREPAYAYDFRGRFAFSLETSASTAYLQINNLKYEDTATYFCALDYSYAMDYWGQGTSVTVSSGGGGSAVVTQEPSLTVSPGGTVTLTCGSSTGAVTTSNYANWVQQKPGKSPRGLIGGTNKRAPGVPARFSGSLLGGKAALTISGAQPEDEADYYCALWYSNHWVFGGGTKLTVLGGGGGSGGGGSGGGGSGGGGSEVQLVESGGGSVQPGGSLRLSCAASGFTFSTYAMNWVRQAPGKGLEWVGRIRSKANNYATYYADSVKGRFTISRDDSKNTLYLQMNSLRAEDTATYYCVRHGNFGDSYVSWFAYWGQGTTVTVSS
notes: also called bispecific tandem scFv BCMA/CD3; scFv BCMA/scFv CD3 BiTE

Key:
[1] = target: T3, extracellular domain of human PD-L1 (Example 8) (human, UniProt Q9NZQ7 19-238); assay: Kinetic Exclusion Assay (KinExA 3200), 1:1 model
T3 construct: extracellular domain; also called PD-L1 antigen; immobilized PD-L1
T3 sequence (Q9NZQ7 19-238): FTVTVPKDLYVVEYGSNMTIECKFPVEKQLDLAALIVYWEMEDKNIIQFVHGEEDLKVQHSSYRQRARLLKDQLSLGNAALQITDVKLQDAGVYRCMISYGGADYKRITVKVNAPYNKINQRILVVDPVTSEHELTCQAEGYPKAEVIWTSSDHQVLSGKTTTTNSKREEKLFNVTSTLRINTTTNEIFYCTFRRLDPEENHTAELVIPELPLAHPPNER
Experimental: (§1) Studies were designed to measure the free antibody in samples with a fixed antibody concentration and different concentrations of antigen PD-L1 at equilibrium, reaction mixtures were performed in PBS (pH 7.4) with 1 mg/ml BSA. […] The equilibrium titration and kinetics data were fit to a 1:1 reversible binding model using KinExA Pro software (version 4.2.10; Sapidyne Instruments) to determine the Kd.

[2] = target: T1, Human BCMA labelled with a fluorescent …; assay: MicroScale Thermophoresis, labelled BCMA at 2 nM
Experimental: Human BCMA was labelled with a fluorescent dye and kept at a constant concentration of 2 nM. […] The samples were analyzed on a Monolith NT.115 Pico at 25° C., with 5% LED power and 40% Laser power.

[3] = target: T3, extracellular domain of human PD-L1 …; assay: competition ELISA in solution (Friguet), Scatchard plot
Experimental: First, mixtures of the trispecific antibody (Ab) at a fixed concentration and the PD-L1 antigen (Ag) at varying concentrations were incubated for sufficient time to reach equilibrium. Then the concentration of trispecific antibody, which remained unsaturated at equilibrium (not associated with PD-L1 antigen), was measured by a classical indirect ELISA using PD-L1 coated plates. […] The Kd was calculated from a Scatchard plot using the following equation:

[4] = target: T4, recombinant human CD3 epsilon His-tag protein (Novoprotein, Cat. No. C578) (human, UniProt P07766 23-126); assay: dual-binding ELISA: BCMA Fc coated, then CD3 epsilon His, anti-His detection
T4 construct: Bought protein; not shown: His-tag
T4 sequence (P07766 23-126): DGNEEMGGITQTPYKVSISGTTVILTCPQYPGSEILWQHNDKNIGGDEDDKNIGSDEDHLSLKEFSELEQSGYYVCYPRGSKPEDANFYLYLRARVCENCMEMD

[5] = target: T3, extracellular domain of human PD-L1 …; assay: Kinetic Exclusion Assay (KinExA 3200)
Experimental: as §1

[6] = target: T5, recombinant human PD-L1 His-tag protein (expressed after transient transfection in HEK293-6E) (human, UniProt Q9NZQ7 19-238, limits assumed); assay: dual-binding ELISA: BCMA Fc coated, then PD-L1 His, anti-His detection
T5 construct: not shown: His-tag
T5 sequence (Q9NZQ7 19-238 limits assumed): as the sequence (Q9NZQ7 19-238) above

[7] = target: T2, recombinant Human BCMA Fc Chimera …; assay: dual-binding ELISA: BCMA Fc coated, then CD3 epsilon His or PD-L1 His, anti-His detection
Experimental: Trispecific antibody molecules were tested for their ability to bind the different targets using a Dual-Binding ELISA. […] Simultaneous binding to antigen pairs was detected via an anti-His antibody (Abcam, Cat. No. ab1187).

[8] = target: T2, recombinant Human BCMA Fc Chimera …; assay: dual-binding ELISA: BCMA Fc coated, then CD3 epsilon His, anti-His detection

Binder	Kd [3]	binding result [4]	binding result [6]	binding result [7]	other results
B1	0.11 nM	binds			Kd [1]: 0.0217 to 0.042 nM; Kd [2]: 8.5 to 9.9 nM
B2	5 nM				
B3	26 nM				fold difference in affinity against CDR1-007 (WT) [5]: ~1000 fold
B4		binds	binds	binds	
B5		binds	binds	binds	
B6		binds	binds	binds	
B7		binds			binding result [8]: binds
B8		binds			binding result [8]: binds
